Reference: publication PMC5278397

Target: gp130 extracellular domain (UniProt P40189)
Assay: SPR; gp130 extracellular domain amine-coupled on CM5; fixed excess of IL-6 and differing concentrations of gp80 (0–250 nM) with or without VHH6; 100 μl/min; 1:1 binding model; 25 °C, HBS-P+; BIAcore T200

Chain of IL-6–gp80 complex (IL-6 with gp80V4) (P05231 49-212): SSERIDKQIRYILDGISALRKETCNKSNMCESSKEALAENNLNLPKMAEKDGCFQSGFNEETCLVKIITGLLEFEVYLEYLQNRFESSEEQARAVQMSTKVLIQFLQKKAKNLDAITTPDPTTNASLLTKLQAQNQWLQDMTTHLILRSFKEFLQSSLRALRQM
Chain of IL-6–gp80 complex (IL-6 with gp80V4) (P08887 111-322): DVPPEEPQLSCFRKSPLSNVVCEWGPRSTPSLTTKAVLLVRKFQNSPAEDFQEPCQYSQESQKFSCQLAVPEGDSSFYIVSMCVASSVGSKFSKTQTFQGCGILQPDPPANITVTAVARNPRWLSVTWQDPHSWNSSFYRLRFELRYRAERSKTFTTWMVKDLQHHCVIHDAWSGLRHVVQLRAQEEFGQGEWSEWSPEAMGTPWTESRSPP
Chain of gp130 extracellular domain (P40189 23-619): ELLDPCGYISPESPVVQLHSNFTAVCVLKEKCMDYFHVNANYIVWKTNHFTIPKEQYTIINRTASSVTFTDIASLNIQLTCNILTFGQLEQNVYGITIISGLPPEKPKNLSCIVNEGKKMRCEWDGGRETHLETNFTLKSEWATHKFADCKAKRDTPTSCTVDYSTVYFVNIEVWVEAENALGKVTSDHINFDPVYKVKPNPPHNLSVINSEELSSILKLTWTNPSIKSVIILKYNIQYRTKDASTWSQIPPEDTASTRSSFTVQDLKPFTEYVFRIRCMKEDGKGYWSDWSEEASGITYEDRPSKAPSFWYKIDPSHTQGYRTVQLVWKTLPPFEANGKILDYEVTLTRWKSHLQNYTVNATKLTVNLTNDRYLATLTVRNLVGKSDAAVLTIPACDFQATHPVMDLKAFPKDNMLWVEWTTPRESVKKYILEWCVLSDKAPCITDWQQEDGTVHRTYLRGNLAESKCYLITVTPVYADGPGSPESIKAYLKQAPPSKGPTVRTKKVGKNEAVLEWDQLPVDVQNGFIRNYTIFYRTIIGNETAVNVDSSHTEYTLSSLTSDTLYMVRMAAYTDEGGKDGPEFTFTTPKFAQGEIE

koff: 0.037 s⁻¹
kon: 360000 M⁻¹ s⁻¹
Substance: IL-6–gp80 complex (IL-6 with gp80V4) (from UniProt P05231 49-212; P08887 111-322)
